Data taken from paper PMC12595022.

Target: 14-3-3γ (UniProt P61981)
Experiment: co-immunoprecipitation, Western blot
Conditions: reference: full-length wild-type MDMX; sites S367

## MDMX (from UniProt O15151) MDMX-S367A
  binding against the reference: lost
